In patent publication US9879306B2, “Luciferase biosensors for cAMP” (PROMEGA CORPORATION, priority 2008, dated 2018):

Columns and labels:
[1] = system: cyclic AMP dependent protein kinase catalytic subunit; conditions: serine at position 543; alkaline phosphatase restored activity; cited from earlier work
[2] = system: catalytic subunit of protein kinase A; conditions: reversed by phosphatase; cited from earlier work
[3] = target: T1, dopamine D2 receptor (Homo sapiens, UniProt P14416); test: Inhibitory response to dopamine with or without forskolin in HEK293 cells stably expressing D2 (Gi pathway); type: cell-based; conditions: relative to biosensor with GSSGGSGGSGGG linker
T1 construct: expressed in transfected cells
T1 sequence (P14416 whole entry, species assumed): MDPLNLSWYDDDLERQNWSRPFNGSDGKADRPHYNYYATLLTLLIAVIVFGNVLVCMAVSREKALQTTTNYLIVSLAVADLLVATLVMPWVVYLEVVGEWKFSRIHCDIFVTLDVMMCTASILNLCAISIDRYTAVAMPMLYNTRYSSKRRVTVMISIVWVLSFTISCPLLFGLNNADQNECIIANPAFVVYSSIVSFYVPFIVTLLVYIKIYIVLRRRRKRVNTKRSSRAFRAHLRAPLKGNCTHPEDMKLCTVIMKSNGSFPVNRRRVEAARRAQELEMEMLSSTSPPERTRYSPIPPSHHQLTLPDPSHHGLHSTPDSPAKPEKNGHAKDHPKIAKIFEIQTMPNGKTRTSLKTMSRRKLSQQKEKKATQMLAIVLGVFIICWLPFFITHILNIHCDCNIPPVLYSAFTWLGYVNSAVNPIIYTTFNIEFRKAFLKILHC
From the text: (§1) A mutant cAMP biosensor (termed L9; SEQ ID NO: 104; SEQ ID NO: 105) having a mutant RIIβB binding site (substitutions E284A and V316I) and a modified linker sequence (GSIAGCGDAGEG, SEQ ID NO: 57; SEQ ID NO: 128) was screened for increased light output and increased fold response when expressed in mammalian cells (primary sequence Met-(Photinus pyralis luciferase residues 359-544)-(GSIAGCGDAGEG (SEQ ID NO: 57; SEQ ID NO: SEQ ID NO: 128))-(RIIβB E284A, V316I)-(Photinus pyralis luciferase residues 4-355)-Val). For a stimulatory response, transient expression in HEK293 cells was followed by treatment with 10 μM isoproterenol (agonist of the endogenous beta2-adrenergic receptor). For an inhibitory response, transient expression in HEK293 cells that stably express the dopamine D2 receptor was followed by simultaneous treatment with dopamine in the presence or absence of forskolin

[4] = target: T2, endogenous beta2-adrenergic receptor (Homo sapiens, UniProt P07550); test: Stimulatory response to isoproterenol in HEK293 cells (Gs pathway); type: cell-based; conditions: 10 μM isoproterenol, relative to biosensor with GSSGGSGGSGGG linker
T2 construct: agonist of the endogenous beta2-adrenergic receptor; endogenous in cells; host or cells: HEK293
From the text: as §1

[5] = system: GPR41; test: Sodium proprionate CRC with biosensor variants in HEK293 cells stably expressing GPR41; type: cell-based; conditions: ratio of RLU of FSK treated well to untreated well
In short: (§2)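 GPR41-stable HEK293 cells were transiently transfected with a cAMP biosensor variant, then after 24 h equilibrated 2 h at room temperature with 5 mM EF-luc in CO2-independent medium with 10% FBS. Baseline luminescence was read, a sodium propionate concentration series added, and luminescence read after 30 min. EC50 and fold response were derived, with or without FSK.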

[6] = target: T3, GPR41 (Homo sapiens, UniProt O14843); test: as above; type: cell-based
T3 sequence (O14843 1-346): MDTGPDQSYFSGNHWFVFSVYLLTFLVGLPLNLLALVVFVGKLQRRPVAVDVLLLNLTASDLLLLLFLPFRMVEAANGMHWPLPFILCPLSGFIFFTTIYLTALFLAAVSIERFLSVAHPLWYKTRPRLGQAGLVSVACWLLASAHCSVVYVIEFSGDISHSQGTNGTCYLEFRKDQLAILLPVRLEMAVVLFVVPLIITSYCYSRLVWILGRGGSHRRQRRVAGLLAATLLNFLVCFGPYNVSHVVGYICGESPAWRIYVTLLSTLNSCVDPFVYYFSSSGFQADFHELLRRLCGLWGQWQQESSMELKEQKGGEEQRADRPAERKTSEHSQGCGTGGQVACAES
In short: as §2

Molecule: LRRASLG
- reduction of activity on addition of kinase catalytic subunit [1]: 30%

Molecule: RRFS: Photinus pyralis luciferase with valine 217 mutated to arginine to generate the site RRFS (Sala-Newby et al.)
- decrease of activity when phosphorylated [2]: up to 80%

B1: L9: cAMP biosensor, RIIβB E284A and V316I, linker GSIAGCGDAGEG; SEQ ID NO:104, 105 (protein)
chain: MPGAVGKVVPFFEAKVVDLDTGKTLGVNQRGELCVRGPMIMSGYVNNPEATNALIDKDGWLHSGDIAYWDEDEHFFIVDRLKSLIKYKGYQVAPAELESILLQHPNIFDAGVAGLPDDDAGELPAAVVVLEHGKTMTEKEIVDYVASQVTTAKKLRGGVVFVDEVPKGLTGKLDARKIREILIKAKKGSIAGCGDAGEGMYESFIESLPFLKSLEFSARLKVVDVIGTKVYNDGEQIIAQGDSADSFFIIESGEVKITMKRKGKSEVEENGAVEIARCSRGQYFGELALVTNKPRAASAHAIGTVKCLAMDVQAFERLLGPCMEIMKRNIATYEEQLVALFGTNMDIVAKNIKKGPAPFYPLEDGTAGEQLHKAMKRYALVPGTIAFTDAHIEVDITYAEYFEMSVRLAEAMKRYGLNTNHRIVVCSENSLQFFMPVLGALFIGVAVAPANDIYNERELLNSMGISQPTVVFVSKKGLQKILNVQKKLPIIQKIIIMDSKTDYQGFQSMYTFVTSHLPPGFNEYDFVPESFDRDKTIALIMNSSGSTGLPKGVALPHRTACVRFSHARDPIFGNQIIPDTAILSVVPFHHGFGMFTTLGYLICGFRVVLMYRFEEELFLRSLQDYKIQSALLVPTLFSFFAKSTLIDKYDLSNLHEIASGGAPLSKEVGEAVAKRFHLPGIRQGYGLTETTSAILITPEGV
- fold response for the Gi pathway [3]: improved fold response
- fold response to isoproterenol induction of the Gs pathway [4]: improved fold response
- Fold Signal Change [5]: 40.9 fold
- Fold Response Na proprionate + FSK(1 μM) ([6]; with FSK 1 μM): 2.60 fold
- Fold Response Na proprionate ([6]; without FSK, ratio of induced to uninduced signal): 2.73 fold
